In the supplement of paper PMC12764529:
± gives the half width of the 95% confidence interval.

Assay: folding stability dG unfold from chymotrypsin proteolysis; higher = more stable
Method: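 Folding stability of de novo designed mini-proteins (<80 aa, no Cys; designed by TrROS, TrMRF, ProteinMPNN and the joint model) was measured by cDNA display proteolysis with trypsin and chymotrypsin. Each protease was used at 11 concentrations in a threefold dilution series plus a no-protease condition. K50 was inferred by Bayesian fitting of sequencing counts, and dG unfold was derived against a sequence-predicted unfolded-state K50 (Tsuboyama et al. method). Sequences shown include variable-length N-terminal GS-type padding (SAGGSAGG...) inside a display construct carrying a PA tag. Rows were kept only if the AF2 dimer inter-PAE was >15, to exclude likely homo-oligomers.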
In the case of “SAGGNLRIRIEMENKDGNKRKIPIPEEEFNRIKESLKNGKPITPEPASWISDYARRNGYDVKIVDIYSAGGS [r8_159_TrROS]”, the “folding stability dG unfold” value is reported as -0.101 ± 0.36 kcal/mol. With “SAGGSAGGSAMPERRAAEAAAAPPPVPKVVITSPGSEEEARRIEEELRAAPGVEEVTVTVVPRLSAGGSAGG [r6_285_JUSTAS]” the “folding stability dG unfold” value was 0.804 ± 0.045 kcal/mol. With “SAGGSAGGSAGVRIPPGYLVRIKFPGNGEREIPIDTPEIEIPGIENVTIEVYPLKKGEPISAGGSAGGSAGG [r11_43_TrROS]” the “folding stability dG unfold” value was 0.553 ± 0.19 kcal/mol. For “SAGGSAGGSAMLTLRFELPDGSERELRLPGVTPEEAAALAAELARREGVARVEVYPPGVERSAGGSAGGSAG [r3_160_JUSTAS]”, the “folding stability dG unfold” value was 0.532 ± 0.26 kcal/mol. In the case of “SAGGSAMSQEEIENKPIEEIAKAILENFPGNTKVEHEFTFKDGSKLRIVVELPEDGEPKIEAEPIGSAGGSA [r15_857_TrMRF]”, the “folding stability dG unfold” value is reported as -0.0162 ± 0.39 kcal/mol. For “SAGGSSYIVKATPAGGPSFEAEATLTSVSSEGDNFTANVEVTFDGKPVTLTFDGDKVGPVVIEPPESAGGSA [r2_319_TrMRF]”, the “folding stability dG unfold” value was 0.558 ± 0.15 kcal/mol. In the case of “SAGGSAGGSGMPTRNVPITTPDGKVVTVVERPPERAEIIFPDGSRATIVDPARGYEEITITPESAGGSAGGS [r12_491_JUSTAS]”, the “folding stability dG unfold” value is reported as 0.945 ± 0.027 kcal/mol. For “SAGGSAGGSAPRLVRVRGPDGGERVIPVPPDVLADRIPPDVPVRVPVVREDGRFRFRVERGSAGGSAGGSAG [r3_86_TrMRF]”, the “folding stability dG unfold” value was -0.819 ± 0.88 kcal/mol. With “SAGGSAGGSAGMKVIVLPVPPNADRVRITYEKGPTLEIEAREDEPVVIVAPENEFTVEVDSAGGSAGGSAGG [r11_52_TrMRF]” the “folding stability dG unfold” value was -0.383 ± 0.28 kcal/mol. For “SAGVRYLVATGEDGATVVVPVPAETEEEAEEKAEELARELAERFPGARFVPVPVEEPELPPVEALPGVESAG [r5_950_TrMRF]”, the “folding stability dG unfold” value was 0.429 ± 0.11 kcal/mol. In the case of “SAGGSAGGSAGGGPGFTVLERREDPATGTVTILRRFAFPDGSTALEPRVVPRAPDERLESAGGSAGGSAGGS [r10_605_JUSTAS]”, the “folding stability dG unfold” value is reported as -0.0135 ± 0.17 kcal/mol. In the case of “SAGGSAGGSAGGGPAKALITSPDGSKAEATVTVDTATGTVTLTVENASLPPDWKLELLGSAGGSAGGSAGGS [r10_306_TrMRF]”, the “folding stability dG unfold” value is reported as 0.768 ± 0.065 kcal/mol. In the case of “SAGGSAGGSMEKRKLEIEIHLPASEATEEEMEELAEEYAKKNPEADEVTFKFTVEESDKESLESAGGSAGGS [r20_86_JUSTAS]”, the “folding stability dG unfold” value is reported as -0.141 ± 0.25 kcal/mol. In the case of “SAGPAVAVAPIPALEARPDLKDALVRVVVSPLPDGRVAVDVRPVFVPKPVITPEEARELEELAEKLAASAGG [r19_313_TrMRF]”, the “folding stability dG unfold” value is reported as 0.297 ± 0.027 kcal/mol. With “SAGGSAGGSAGGSTVTVTSEEEAQEAREALAAERAAAEPGAEPPEAFPVEVEVVPPELRSAGGSAGGSAGGS [r4_498_JUSTAS]” the “folding stability dG unfold” value was 0.633 ± 0.047 kcal/mol. For “SAGGSAGGSAKRTIFIPAEDLQKNPDNAEELAQTIAEEFNDNGKEIKIEQHPDGGVVIELKSAGGSAGGSAG [r3_75_TrROS]”, the “folding stability dG unfold” value was -0.3 ± 0.1 kcal/mol. For “SAGGSTAEELADQIHKKFMEQGYKITDVDITYNPNNWVMVKATIRNPDDPNQRMKMNIMIPKDEIKSAGGSA [r2_384_TrROS]”, the “folding stability dG unfold” value was 0.649 ± 0.32 kcal/mol. In the case of “SAGGSAGGSAGGPPIIEFPIKGDNPEQAKRFAKEVVDLLPDQNPENVDITTTDGWVRITSAGGSAGGSAGGS [r10_182_TrROS]”, the “folding stability dG unfold” value is reported as -0.636 ± 0.67 kcal/mol. For “SAGGDKLGKPLGGKPVTFDISKEELSYNPSNGTWSKSVVTTPRTVFYPPDAEPDPAVFASGAGSVTLASAGG [r13_753_JUSTAS]”, the “folding stability dG unfold” value was 0.281 ± 0.091 kcal/mol. With “SAGGSEAAPGEKVTITTVTSSVLKTYETPTGTLETESSTSVTTTTVTVPAAAAAAAGVRYSPDPLLSAGGSA [r2_495_JUSTAS]” the “folding stability dG unfold” value was -0.348 ± 0.14 kcal/mol. With “SAGGSSRTISIPVSPSLSPEEVAELIKKEVKKMGEDKEVKVLSVDPSGRIDVLVGDEPITVDASLPSAGGSA [r2_102_JUSTAS]” the “folding stability dG unfold” value was 0.623 ± 0.1 kcal/mol. For “SAGGMTLDQLKENIKSVEVYPHPDGGYRMRVQIPQPNPDGKPKPREFNIPMPPNDPNMSADNVIDQILSAGG [r13_319_TrROS]”, the “folding stability dG unfold” value was -0.353 ± 0.27 kcal/mol. For “SAGGSAGGSAGGPERELTVPITTPDGSGKSISAELGEEELEKLIEENPEWKEAIIEARRESAGGSAGGSAGG [r7_637_JUSTAS]”, the “folding stability dG unfold” value was 0.975 ± 0.059 kcal/mol. For “SAGGSAGGSDKIRKALKELGYPYEIDNIDVNVTKNGNPEIEIKYSPGMPPQDQKRIKRAVIDLSAGGSAGGS [r12_352_TrROS]”, the “folding stability dG unfold” value was -0.14 ± 0.065 kcal/mol. With “SAGGSAGGSAGGSDPSATLRVTLTPRTTRTRLVTDEDGVERTYTFGGDGTLSVSLLPSGSAGGSAGGSAGGS [r4_162_TrMRF]” the “folding stability dG unfold” value was 0.647 ± 0.15 kcal/mol. For “SAGGSAGGSAGGMITVNPRGGTATFTTSSGETTTVPASLADQVRVDTGLPDAPVFTAPPASAGGSAGGSAGG [r7_235_JUSTAS]”, the “folding stability dG unfold” value was 0.183 ± 0.23 kcal/mol. With “SAGGSMKLKPGDEIWVPENMPEDAIKDEIKEWADNFNIKGIDDIEPPKPGWHRIKVEWPNGRKLTISAGGSA [r2_168_TrROS]” the “folding stability dG unfold” value was -0.147 ± 0.17 kcal/mol. With “SAGGSAGGSAGGLHPDQEFAVRLDLDLDLRLGPGADLRVSDVRVGGVRVYDLRTGRWLDSAGGSAGGSAGGS [r10_248_TrMRF]” the “folding stability dG unfold” value was 0.445 ± 0.15 kcal/mol. For “SAGPWKIEVEQYDPNGKKEEIEDPEDLLDLAKDLPPNRMVHIKIPNGRETIMFQNPDGNVFVLKIERPESAG [r5_506_TrROS]”, the “folding stability dG unfold” value was -0.0396 ± 0.33 kcal/mol. In the case of “SAGGSAGGMLVPLDDTRVVPLPDGSYAVLVRPADGSELLREFDSLEDAVEWAEATGAGVADLPASAGGSAGG [r6_84_TrMRF]”, the “folding stability dG unfold” value is reported as 0.0582 ± 0.18 kcal/mol. In the case of “SAGGSAGGSAGWNIEPKPEPERDPDGNPQPRMEIKIRVPPPTAEQAQEWAKENGLPVTVYSAGGSAGGSAGG [r17_114_TrROS]”, the “folding stability dG unfold” value is reported as -0.0462 ± 0.17 kcal/mol. In the case of “SAGGSYMVKVEWRNNNKEMEMTHPFDDPEDALNFAHDLLPNGMELDIEVFDPKEGEPIGTVPFRVDSAGGSA [r2_390_TrROS]”, the “folding stability dG unfold” value is reported as -0.536 ± 0.26 kcal/mol. In the case of “SAGGSAGGSGMPRKIASYEEKEEEDGKKTVKVRFPDDGKEITLSPEKAGKITPDSTVPLEELLSAGGSAGGS [r20_3_JUSTAS]”, the “folding stability dG unfold” value is reported as 0.404 ± 0.049 kcal/mol. For “STRTVPIPIRWDNGRLSPDDIRNAIKKALPPGENVKITEETIQNFWQEWAGKNGKPMTPEDFPIRIEVKKSA [r9_197_TrROS]”, the “folding stability dG unfold” value was 0.0542 ± 0.36 kcal/mol. For “SAGGSAGGSAMPLGVTTSTSTSLLPSNSRLVTETITTPGTTSTTTTLLTPPPGEVLETTTTSSAGGSAGGSA [r18_459_JUSTAS]”, the “folding stability dG unfold” value was 0.997 ± 0.027 kcal/mol. In the case of “SAGGSAGGSNWIEKAINEAMKQHPPGQERKVPIEIYNPNNNKPIGKIPIRIRMDKDGPMEIEISAGGSAGGS [r20_151_TrROS]”, the “folding stability dG unfold” value is reported as 0.864 ± 0.049 kcal/mol. With “SITISPDKVYTLKNVRVGDYEVDGLVAVAGPDGTVYVPADVRPVVVPPPAPPVGLDPVDGGVYDITDPSVSA [r9_603_TrMRF]” the “folding stability dG unfold” value was -0.965 ± 0.61 kcal/mol. For “MPSVTLPVTLVLDTRRPDGRPLTPEQVRALAEAAVRELAEATGVDVEADVTVTPLGPEGRAVVDVVVTVRPS [r1_231_TrMRF]”, the “folding stability dG unfold” value was 0.746 ± 0.1 kcal/mol. In the case of “SAGGSAGGSAGGSSMLTTRPLPGGRTLLRTTLPDGTILVTRYDAAGEPVLETLPPSTPLLSAGGSAGGSAGG [r7_215_JUSTAS]”, the “folding stability dG unfold” value is reported as 0.102 ± 0.27 kcal/mol. With “SAGGSAGGSAGSMVEVTYEPDPATGGSRIVTTTRFPDRNTVTVTELDPNAGVPLETVEVESAGGSAGGSAGG [r11_676_JUSTAS]” the “folding stability dG unfold” value was -0.16 ± 0.029 kcal/mol. In the case of “SAGGSAGGSAGGKPVKVKVVIPVPDGDEVLVLEVEVEGEGGEEAVRQALEVAAELLREGSAGGSAGGSAGGS [r10_863_TrMRF]”, the “folding stability dG unfold” value is reported as 0.768 ± 0.088 kcal/mol. In the case of “SAGPEIKIEPRSYDPKKGIFTYSAYVLDYKDGKKEREIEVGTWRYYGPDGTVEPISEEDILQKAKDLLSSAG [r5_909_TrMRF]”, the “folding stability dG unfold” value is reported as 0.543 ± 0.32 kcal/mol. With “SAGGSAGGSAGGMLPFEVLEVTTSTGKGKTTRTVLAREPEGPEVVLTFSPASPEEIERLLSAGGSAGGSAGG [r7_365_JUSTAS]” the “folding stability dG unfold” value was 0.735 ± 0.13 kcal/mol. For “SMTLVGTTTLPNATVTTYKNETKYIVLTYDPVEAGEPAAVSYVEKYEGNKVVKKKKVAPEEIEKAIEELLSA [r9_57_JUSTAS]”, the “folding stability dG unfold” value was 0.609 ± 0.32 kcal/mol. In the case of “TLSPEEIEAEARARAEAAVAARPDSAADVELDVPVEFPVRTERRDPRSDRWSRSLSTVRLRLRLRLARGAGS [r1_90_JUSTAS]”, the “folding stability dG unfold” value is reported as 0.343 ± 0.2 kcal/mol. For “SKKFQIYNPDEGQPFQIEVDPEDGKVTVEWPNGEEEEAPVKDIEIDPGHGWIKIKHPGKEVTIRIPPDMFSA [r9_325_TrROS]”, the “folding stability dG unfold” value was 0.00862 ± 0.44 kcal/mol.
